This note sets out measurements from publication PMC8093829.

For assay [1], the target named is T1, recombinant L-asparaginase refolded from E. coli inclusion bodies, P00805.
T1 chain: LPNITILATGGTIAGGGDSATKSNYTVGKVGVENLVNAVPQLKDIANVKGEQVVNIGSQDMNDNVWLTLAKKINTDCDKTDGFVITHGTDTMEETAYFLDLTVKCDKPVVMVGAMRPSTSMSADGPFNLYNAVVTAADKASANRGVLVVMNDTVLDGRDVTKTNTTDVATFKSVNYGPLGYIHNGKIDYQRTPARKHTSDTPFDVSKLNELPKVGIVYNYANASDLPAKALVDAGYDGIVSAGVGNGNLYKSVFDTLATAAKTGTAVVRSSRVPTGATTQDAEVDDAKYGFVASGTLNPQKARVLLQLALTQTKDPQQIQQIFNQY
Put plainly: SEC; Superdex 200 PG 16/600, equilibrated with 20 mM Tris-HCl, 10% (v/v) glycerol, pH 8.5, eluted in 50 mM Tris-HCl, 0.5 ml/min; DEAE-purified, concentrated refolded L-asparaginase. Particulars: remark: other sources report otherwise. (Size exclusion chromatography separates by hydrodynamic size, large species first.)

The target of assay [2] is T2, commercial L-asparaginase 5,000 IU/ml, Bionase 5K, P00805.
T2 chain: T1 chain
Kind of assay: SEC; HPLC, TSK gel G3000SWxl, 20 mM Tris-HCl and 100 mM NaCl; commercial L-asparaginase concentrated to 2 mg/ml. Particulars: remark: other sources report otherwise.

B1: recombinant L-asparaginase refolded from E. coli inclusion bodies, P00805 23-348 (enzyme)
chain: T1 chain
As a reminder, the stoichiometry N is the number of molecules, sites or subunits per partner or assembly. As for B1, in assay [1], the stoichiometry N was 4.

B2: commercial L-asparaginase 5,000 IU/ml, Bionase 5K, P00805 23-348 (enzyme)
chain: T1 chain
For B2, in assay [2], the stoichiometry N was found to be 4 and the tetrameric population (%) came out at 81.4%.
